# Test results as given in patent publication US20110064740A1.
# B1: Mouse monoclonal antibody 2E7 (antibody, mouse IgG2a, V domains shown)
# VH: EVKLVESGGGLVQPGGSLKLSCAVSGFTFSDNGMAWVRQAPRKGPEWIAFISNLAYSIDYADTVTGRFTISRDNAKNTLYLEMSSLRSEDTAMYYCVSGTWFAYWGQGTLVTVSA
# VL: DVVLTQTPLSLPVSLGDQASISCRVSQSLLHSNGYTYLHWYLQKPGQSPKLLIYKVSNRFSGVPDRFSGSGSGTDFTLKISRVEAEDLGVYFCSQTRHVPYTFGGGTKLEIK
# What was measured:
# [1] = target: Cell-surface full length amyloid precursor protein (APP) on HEK293T cells transfected with wild type APP DNA (UniProt P05067); test: FMAT ABI8200, HEK293T cells transfected with wild type APP, mock subtracted; Experiment 1
# Sequence of Cell-surface full length amyloid precursor protein (APP) on HEK293T cells transfected with wild type APP DNA (P05067 18-770): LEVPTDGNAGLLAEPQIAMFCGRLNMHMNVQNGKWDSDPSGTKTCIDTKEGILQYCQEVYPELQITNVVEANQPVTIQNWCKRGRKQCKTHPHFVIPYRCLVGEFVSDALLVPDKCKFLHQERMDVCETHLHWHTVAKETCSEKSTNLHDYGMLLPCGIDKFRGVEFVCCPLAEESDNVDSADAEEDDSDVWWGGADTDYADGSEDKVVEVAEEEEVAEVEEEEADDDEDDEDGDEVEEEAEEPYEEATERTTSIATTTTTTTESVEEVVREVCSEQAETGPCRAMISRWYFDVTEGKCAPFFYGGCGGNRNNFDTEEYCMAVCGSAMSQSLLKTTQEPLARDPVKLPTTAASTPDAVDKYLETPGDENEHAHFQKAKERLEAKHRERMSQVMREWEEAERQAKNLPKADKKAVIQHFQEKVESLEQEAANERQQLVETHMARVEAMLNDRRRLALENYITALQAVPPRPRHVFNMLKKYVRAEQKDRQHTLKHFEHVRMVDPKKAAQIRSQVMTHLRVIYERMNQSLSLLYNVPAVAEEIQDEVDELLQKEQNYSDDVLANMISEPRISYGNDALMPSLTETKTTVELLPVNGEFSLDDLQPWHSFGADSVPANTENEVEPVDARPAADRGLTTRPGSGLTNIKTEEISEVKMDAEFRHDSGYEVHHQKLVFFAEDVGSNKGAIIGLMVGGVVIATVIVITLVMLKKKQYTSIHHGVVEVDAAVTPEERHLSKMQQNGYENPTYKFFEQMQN
# [2] = target: Cell-surface full length amyloid precursor protein (APP) on HEK293T cells transfected with wild type APP DNA (UniProt P05067); test: FMAT ABI8200, HEK293T cells transfected with wild type APP, mock subtracted; Experiment 2
binder,measurement,setting,value
B1,% of LN27 binding,[1],9.9%
same,% of LN27 binding,[2],2.2%
